In patent publication US5234903A, “Chemically modified hemoglobin as an effective, stable non-immunogenic red blood cell substitute” (Enzon, Inc., priority 1990, dated 1993):
Several values for one entry are separate records, joined by “and”; a condition that tells them apart may be missing. Equal entries are not always repeated. Where two headings read alike, the source gives them in different places. Each block holds one substance with its values, some of them ahead of it.

Tests used:
[1] = Oxygen binding: P50 (partial pressure of oxygen at 50% saturation) and Hill coefficient; settings: Examples I-V and control
Protocol: Hemoglobin constitutes about 90% of the total protein in red blood cells. 100 ml of whole blood is capable of absorbing approximately 21 ml of gaseous oxygen due to the binding ability of hemoglobin. Equally important to the binding of oxygen, hemoglobin is also efficient in releasing the bound oxygen to tissues. The ability of hemoglobin to bind and release oxygen is often quantitatively expressed as the P50, the partial pressure of oxygen which results in fifty percent saturation of hemoglobin.
The resulting modified hemoglobin may then be tested to determine its P50 value so as to confirm that a clinically useful P50 has been achieved. Methods of P50 measurement include standard methods of analysis, such as, for example, methods utilizing the Hemox-Analyzer (TCS Medical Products Co., Huntingdon Valley, Pa.).
Following reduction, the hemoglobin may be reacted with an activated polyalkylene oxide under conditions which maintain the structural integrity of the oxygen binding site. In preferred embodiments of the invention, such conditions consist of a high anion concentration; in a specific embodiment this anion is chloride ion. In preferred embodiments, the chloride ion concentration is at least about 1.0M. […] According to the invention, the activated polyalkylene oxide may have one or more than one functional groups. The degree of modification for each preparation referred to in Table I is approximately 20 percent. This percent modification corresponds to about […] PEG molecules per each molecule of hemoglobin. The percent modification may be calculated according to the number of lysines modified by PEG and is based on a total of 48 surface lysines in bovine hemoglobin. The number may be determined by trinitrobenzene sulfonic acid (TNBS) assay (Habeef et al., 1966, Analyt. Biochem. 14:328-336).
(§1) The polyalkylene oxide modified hemoglobin may then be chemically characterized using methods known in the art. For example, the oxygen dissociation curve may be determined using standard techniques (for example, Imai et al., 1970, Biochim. Biophys. Acta 200: 189-196) allowing calculation of the P50 value. Additional parameters which would be desirable to measure include the methemoglobin content, the viscosity, the osmolality, the pH, and the Hill constant; the effects of changes in pH on the oxygen saturation curve may be determined as described in Bartels (1971, Blood oxygen dissociation curves: Mammals. in "Respiration and Circulation", Altman and Dittmer, Eds., Federation of American Societies for Experimental Biology, Bethesda).
Purification was carried out using a hollow-fiber ultrafiltration device with M.W. cutoff of 50 kD that is commercially available from American Fluid, Richboro, Pa. The advantage of this device relative to conventional tangential flat ultrafiltration membranes is its easy handling of viscous protein solutions such as the 6% PEG-Hb solution. Following purification, the P50 of the PEG-Hb was determined by a Hemox-Analyzer (TCS Medical Products Co., Huntington Valley, Pa.).

[2] = Viscosity and colloid osmotic pressure of PEG-Hb solutions; type: physicochemical
Excerpt: as §1

[3] = Methemoglobin content of PEG-Hb preparations; type: physicochemical; settings: in preparation
Excerpt: as §1

[4] = Free iron by ferrozine assay; type: physicochemical; settings: in preparation
Excerpt: The P50 of the above PEG-bHb was 29mm Hg (Table IV). […] Half-life of this example injected into rats after a 70 percent exchange transfusion was approximately nine hours (Table IV).

[5] = Half-life and intravascular Met-Hb in rats after 70 percent exchange transfusion; type: in vivo; settings: rats; for Half-life / Met-Hb at Half-life: 70% exchange transfusion
Excerpt: Blood circulating time of polyalkylene oxide-modified Hb may, for example, and not by way of limitation, be evaluated by monitoring the concentration of hemoglobin in the plasma fraction (at 540 nm) of blood samples sequentially collected following exchange transfusion with modified Hb. Hemoglobin disappearance may be plotted as a function of time.

rats = assay: Blood pressure, heart rate and breathing in rats after 70 percent exchange transfusion; type: in vivo; settings: 70% exchange transfusion
Excerpt: Acute toxicity studies may be performed in any suitable experimental animal. Preferably, a range of exposures may be tested; for example, by evaluating animals that have received a 50 or 70 percent exchange transfusion as compared to animals that have received a 100 percent exchange transfusion. Vital signs and visual observations should be recorded, and the animals may be sacrificed after a period of time estimated to correspond to one half-life of the hemoglobin formulation being tested. Histological evaluation using standard techniques may be used to determine the presence or absence of toxic effects on tissues including lung, kidney, liver, or brain.
The results of in vivo studies, in which rats were given a 70 percent exchange transfusion of hemoglobin prepared according to Examples I-V or control (native bovine hemoglobin) are shown in Table V (bracketed numbers are values obtained in rats that were not transfused). Note that the breathing rate decreased slightly, and the blood pressure increased by at most about 30-35 percent relative to control, showing a good physiologic response to the exchange transfusion.

[6] = in words; cited from earlier work
[7] = in vivo; cited from earlier work

- Hill coeff. [1]: 2.05
- p50 [1]: 25 mmHg
Substance: Example III: bovine hemoglobin conjugated with SC-PEG (MW 3000) at a molar ratio of 30:1
- Osmotic Press. [2]: 22 mmHg
- Viscosity [2]: 3.8 cp
- MetHb [3]: < 5%
- Free Iron [4]: 20 µg/dL
- Endotoxin (Endotoxin (LAL test)): < .1 EU
- Half-life [5]: 12.4 h
- Met-Hb at Half-life [5]: 13.8%
- Breathing (rats): 79 min⁻¹
- Heart Rate (rats): 408 min⁻¹
- Mean Arterial Press. (rats): 132 mmHg

- Hill coeff. [1]: 1.8
- p50 [1]: 20 mmHg
Substance: Example IV: bovine hemoglobin modified with SC-PEG (MW 2000) at a molar ratio of 40:1
- Osmotic Press. [2]: 22 mmHg
- Viscosity [2]: 3.2 cp
- MetHb [3]: < 5%
- Free Iron [4]: 20 µg/dL
- Endotoxin (Endotoxin (LAL test)): < .1 EU
- Half-life [5]: 13.0 h
- Met-Hb at Half-life [5]: 18.0%
- Breathing (rats): 83 min⁻¹
- Heart Rate (rats): 432 min⁻¹
- Mean Arterial Press. (rats): 129 mmHg

- Hill coeff. [1]: 2.2
Substance: Example V: polymerized bovine hemoglobin modified first by BSC-PEG (MW 4600) 2:1, then SC-PEG (MW 5000) 10:1
- Osmotic Press. [2]: 20 mmHg
- Viscosity [2]: 4.0 cp
- colloid osmolality [2]: 22 mm Hg
- MetHb [3]: 2%
- Endotoxin (Endotoxin (LAL test)): < .1 EU
- endotoxins (Endotoxin (LAL test); LAL test, in words): free of endotoxins
- Half-life [5]: 19 h and 18.8 h
- Met-Hb at Half-life [5]: 12.0%
- intravascular Met-bHb formation ([5]; 70 percent exchange transfusion): 12%
- Breathing (rats): 90 min⁻¹
- Heart Rate (rats): 423 min⁻¹
- Mean Arterial Press. (rats): 97 mmHg

Further lines, the substance ahead of its results:

Substance: CONTROL: control (native bovine hemoglobin) [reference compound]
- Hill coeff. [1]: 2.4
- Osmotic Press. [2]: 22 mmHg
- Viscosity [2]: 3.0 cp
- MetHb [3]: < 5%
- Free Iron [4]: 24 µg/dL
- Endotoxin (Endotoxin (LAL test)): < .1 EU
- Half-life [5]: 1.5 h
- Met-Hb at Half-life [5]: 16.5%
- Breathing (rats): 100 min⁻¹
- Heart Rate (rats): 304 min⁻¹
- Mean Arterial Press. (rats): 90 mmHg

Substance: Example II: bovine hemoglobin deoxygenated through gas permeable membrane, conjugated to SC-PEG (5000)
- Hill coeff. [1]: 2.2
- p50 [1]: 24 mmHg
- Osmotic Press. [2]: 22 mmHg
- Viscosity [2]: 4.5 cp
- MetHb [3]: < 5%
- Free Iron [4]: 27 µg/dL
- Endotoxin (Endotoxin (LAL test)): < .1 EU
- Half-life [5]: 9.6 h
- Met-Hb at Half-life [5]: 5.8%
- Breathing (rats): 104 min⁻¹
- Heart Rate (rats): 408 min⁻¹
- Mean Arterial Press. (rats): 119 mmHg

Substance: Stroma-free hemoglobin: stroma-free hemoglobin, taken out of the red blood cell microenvironment
- P50 / oxygen binding of stroma-free hemoglobin [6]: bind oxygen too tightly (a low P50)
- transfusion half-life [7]: about 100 minutes

Substance: U.S. Pat. No. 4,529,719: stroma-free hemoglobin cross-linked with a bis-diaspirin ester, reacted with pyridoxal phosphate
- Half-life [7]: approximately 20 hours
